Experimental data from US20220313789A1, “TARGETING MELANOCORTIN 3 RECEPTOR FOR TREATMENT/PREVENTION OF EATING, METABOLISM, AND/OR EMOTIONAL DISORDERS” (The Regents of the University of Michigan, priority 2019, published 2022).
“Also recorded” adds a separate entry of the source. Bridge positions count the residues as written; N and C are the ends. Square brackets hold non-standard residues; d marks the D form. Ends that are not written are not given here. d2Nal = N[C@H](Cc1ccc2ccccc2c1)C(=O)O; Ac6c = NC1(C(=O)O)CCCCC1; Nle = CCCC[C@H](N)C(=O)O

How the values were obtained:
WT mice = test: CNO administration to WT mice; format: in vivo
Procedure: FIG. 9. […] 24-hour food intake following i.p. injections of saline or CNO. […] Data represented as mean+/−s.em. Data analyzed with Student's paired t-test. n=15 mice
Given the enhanced expression of MC3R in the orexigenic arcuate AgRP neurons, relative to POMC and vGLUT2 neurons, experiments were conducted during development of embodiments herein to determine whether the dominant role of MC3R in the arcuate is to stimulate food intake and increase body weight. A previously characterized (Ref. 18; herein incorporated by reference in its entirety) MC3R-Cre mouse model in which Cre recombinase is exclusively expressed in cells containing MC3R was utilized for these experiments. To selectively activate the MC3R expressing neurons in the arcuate, a Cre dependent AAV viral vector expressing the DREADD (designer receptor exclusively activated by designer drugs) activator hM3Dq was stereotaxically targeted to the arcuate nucleus in MC3R-Cre mice (Refs 22-23; herein incorporated by reference in their entireties) (FIG. 2). It was validated that CNO administration activates ARC-MC3R neurons by measuring the neuronal activity marker, cfos, in response to CNO or saline injections. […] To determine if chronic activation of ARC-MC3R neurons is a viable strategy for increasing food intake and body weight CNO was administered twice daily for five consecutive days. […]

[1] = test system: arcuate MC3R expressing neurons (hM3Dq); test: DREADD (hM3Dq) activation of arcuate MC3R neurons by CNO; format: in vivo, mice
From the text: (§1) FIG. 2. Potent Bidirectional Regulation of Feeding by DREADD Activation of MC3R ARC neurons. (A) Representative images showing hM3Dq-mCherry (red), and cfos (green), in the arcuate nucleus of a mouse transduced with hM3Dq in arcuate MC3R expressing neurons following CNO or saline administration. Panels on right are an enlargement of the boxed sections. (B) Quantification of cfos expression in the arcuate nucleus following i.p. injections of saline or CNO (unpaired Student's t-test). […] (C) Acute feeding assays following DREADD mediated activation of arcuate MC3R neurons. Activation of MC3R neurons increased food intake at all times tested (2-way ANOVA with Bonferroni post-hoc test, n=10 mice). (D) Change in body weight following a single injection of CNO or saline. […] (E) Daily food intake in MC3R-Cre mice targeted with the inhibitory DREADD hM4Di in arcuate MC3R expressing neurons. […] (F) Change in body weight following long term CNO injections in hM4Di transfected and WT mice. […]
(§2) To evaluate the effects of DREADD mediated manipulation of ARC-MC3R neurons on feeding and body weight, mice were habituated to twice daily vehicle injections (i.p., saline; 200 ul). […] Food intake was measured twice daily (10 am and 6 pm) during chronic i.p. injection experiments. Body weight was measured daily at 10 am immediately prior to administering CNO/saline. […]

[2] = test system: arcuate MC3R expressing neurons (hM4Di); test: DREADD (hM4Di) inhibition of arcuate MC3R neurons by CNO; format: in vivo; details: hM4Di transfected mice vs WT control
From the text: as §1, §2

MC3R [3] = target: T1, MC3R (Mus musculus, UniProt P33033); test: MC3R agonist feeding assays (food intake, body weight) in WT mice; format: in vivo; details: for Acute food intake: 10 mg/kg, i.p., ad libitum fed mice, relative to vehicle; for 24-hour food intake / body weight: single peripheral injection
T1 construct: from tissue; host or cells: living mice (C57/BL6J background), central nervous system / hypothalamus
Procedure: Clozapine-N-Oxide (CNO) was purchased from Enzo Life Sciences. On the day of experiments fresh stock CNO (1 mg/0.1 ml) was prepared in water. CNO was administered via i.p. injections (200 ul Saline; 1 mg/kg). […] (5 ug; 500 nl DMSO).
Behavioral assays were performed on ad libitum fed mice. Mice were single caged for at least one week prior to starting feeding assays. Feeding assays were performed during the light period.
For peripheral administration of MC3R agonist compounds, mice were first habituated to vehicle injections (i.p.; saline in 10% DMSO; 200 ul) for 2-4 consecutive days. Following habituation and consecutive days of stable food intake in response to vehicle injections, agonist compounds were administered (i.p.; 10 mg/kg; saline in 10% DMSO). Food intake was measured following drug or vehicle administration by carefully removing food from the food hopper and weighing on a scale. Cages were changed daily during acute feeding assays to prevent spillage of food from the food hopper.
For central administration of MC3R agonist compounds we first administered vehicle injections (500 nl DMSO) for 2-4 consecutive days to habituate mice to handling and injection. […] Body weight was measured daily immediately prior to injections.

PVN MC4R neurons = test: In vivo calcium imaging (GCAMP6s endomicroscopy) of PVN MC4R neurons; design: species or system mice; details: 10 mg/kg, i.p., vs baseline
Procedure: (left panels): Heat map displaying relative fluorescence, determined by endomicroscopy (Inscopix) of individual PVN MC4R neurons for five minutes of baseline recording, followed by five minutes of recording in response to a saline injection.
D: Change in florescence following i.p. administration of saline. […] F: Change in fluorescence following i.p. administration of the MC3R agonist C18 (10 mg/kg, i.p.). […] G: Heat plot showing real-time change in fluorescence activity in a representative mouse during baseline and following administration of C18. H: Average trace of the relative change in fluorescence before and after C18 administration. […] Data represents mean+/−s.e.m. for panels D-F. Panels D, F, and I analyzed with paired Student's t-test.

MC3R [4] = target: T2, MC3R (Homo sapiens, UniProt P41968); test: Primary HTS antagonist assay / screen for MC3R antagonists
From the text: Primary HTS antagonist assay. […] (B): Positive and negative assay with kinetics of antagonist and agonist addition indicated. (C): Scatterplot of corrected and normalized data. Typical Z′ factors are above 0.5.

MC3R [5] = target: T2, MC3R; details: cited from earlier work
MC4R [6] = target: T3, MC4R (Homo sapiens, UniProt P32245); details: cited from earlier work
MC3R [7] = target: T2, MC3R; details: cited from earlier work; remark: listed apart in the source
MC4R [8] = target: T3, MC4R; details: cited from earlier work; remark: listed apart in the source

T1 sequence (P33033 whole entry): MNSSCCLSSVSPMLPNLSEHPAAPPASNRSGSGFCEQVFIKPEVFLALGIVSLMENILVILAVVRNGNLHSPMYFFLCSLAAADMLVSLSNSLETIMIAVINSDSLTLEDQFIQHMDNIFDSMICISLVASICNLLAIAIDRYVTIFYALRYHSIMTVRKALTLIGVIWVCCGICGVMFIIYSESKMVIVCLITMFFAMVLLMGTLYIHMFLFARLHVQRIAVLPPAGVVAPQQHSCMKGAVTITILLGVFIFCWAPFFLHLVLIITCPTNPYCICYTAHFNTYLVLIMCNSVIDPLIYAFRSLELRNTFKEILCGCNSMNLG
T2 sequence (P41968 whole entry): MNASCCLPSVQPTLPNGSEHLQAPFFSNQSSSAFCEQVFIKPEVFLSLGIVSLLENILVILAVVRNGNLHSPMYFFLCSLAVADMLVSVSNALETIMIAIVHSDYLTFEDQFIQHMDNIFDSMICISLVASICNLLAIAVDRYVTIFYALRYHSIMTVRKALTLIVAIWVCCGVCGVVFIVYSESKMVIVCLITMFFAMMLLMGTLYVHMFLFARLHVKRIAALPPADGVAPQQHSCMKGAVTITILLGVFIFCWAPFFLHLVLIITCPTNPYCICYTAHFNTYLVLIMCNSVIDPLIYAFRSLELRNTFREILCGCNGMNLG
T3 sequence (P32245 whole entry): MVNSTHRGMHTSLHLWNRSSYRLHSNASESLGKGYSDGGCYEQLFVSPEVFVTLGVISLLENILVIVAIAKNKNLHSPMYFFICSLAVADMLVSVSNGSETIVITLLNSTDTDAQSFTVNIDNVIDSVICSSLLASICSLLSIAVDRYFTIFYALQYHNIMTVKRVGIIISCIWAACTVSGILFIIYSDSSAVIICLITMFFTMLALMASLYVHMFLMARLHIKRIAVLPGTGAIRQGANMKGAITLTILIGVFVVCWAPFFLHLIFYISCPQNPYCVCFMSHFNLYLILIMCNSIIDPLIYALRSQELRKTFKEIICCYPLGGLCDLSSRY

## C[N+]1([O-])CCN(C2=Nc3cc(Cl)ccc3Nc3ccccc32)CC1 [CNO, Clozapine-N-Oxide]
WT mice; CNO injections, WT littermate control mice
  body weight: No change in food intake or body weight; also recorded: No effect on BW
WT mice; i.p. CNO vs saline, WT / littermate control mice
  food intake: No change in food intake or body weight; also recorded: No difference in food intake was detected
[1]; i.p. CNO vs saline, hM3Dq in arcuate MC3R neurons
  cfos expression in the arcuate nucleus: increased cfos expression in the arcuate nucleus; also recorded: Dense cfos expression was observed in ARC-MC3R neurons
[1]; single injection of CNO or saline, hM3Dq mice, CNO 0.1 mg/kg
  Change in body weight: Body weight increased on the day following CNO injection, remaining elevated five days following CNO injection
[2]; long term / twice daily CNO
  Change in body weight: reduced BW in hM4Di transfected mice; also recorded: reduced both food intake and BW
[2]; twice daily CNO
  Daily food intake: reduced daily food intake in hM4Di transfected mice; also recorded: reduced both food intake and BW

## Ac-Nle-c[Asp-Pro-Pro-DNal(2′)-Arg-Trp-Lys]-NH2 (Ac-[Nle]DPP[d2Nal]RWK-NH2; lactam 2-8) [PG990]
MC3R [3]
  Acute food intake: acutely stimulated food intake
  24-hour food intake: no significant difference
  body weight: no significant difference
MC3R [3]; 3 days of treatment
  weight gain: 8%
MC3R [3]; PG990 series of peptides, route not given in the sentence
  24 h food intake: increases 24 h food intake
PVN MC4R neurons
  Fluorescence activity of PVN MC4R neurons: Fluorescence activity was suppressed

## Polymyxin B
MC3R [4]
  MC3R over MC4R selectivity: four-fold
MC3R [4]; screen of Vanderbilt chemical library
  potency as MC3R antagonist: submicromolar potency

## [Ac6c-His-DPhe-Arg-Trp-Asp]-NH2 ([Ac6c]H[dF]RWD-NH2; N-terminus assumed; SMILES N=C(N)NCCC[C@H](NC(=O)[C@@H](Cc1ccccc1)NC(=O)[C@H](Cc1c[nH]cn1)NC(=O)C1(N)CCCCC1)C(=O)N[C@@H](Cc1c[nH]c2ccccc12)C(=O)N[C@@H](CC(=O)O)C(N)=O) [FMMC-5, MC3R peptide agonist]
MC3R [3]
  Acute food intake: acutely stimulated food intake
  24-hour food intake: no significant difference
  body weight: no significant difference
MC3R [5]
  EC50: 30 nM
MC4R [6]
  IC50: 260 nM
MC3R [7]
  IC50: 10 nM
MC4R [8]
  EC50: 280 nM
